The source of these data is publication PMC5789848, “HTLV-1 Tax plugs and freezes UPF1 helicase leading to nonsense-mediated mRNA decay inhibition” (Nature Communications, 2018).

Where a chain is given by its changes, count along the chain named. In names and notes the source's numbering stands.

Settings in all cases: both partners purified
In experiment [1] the target is T1, UPF1-CH-HD (CH and HD domains of UPF1; aa 115-914) (human, UniProt Q92900-2 115-914).
T1 construct: UPF1, human, CH and helicase domains, aa 115-914; numbers count on: the 1118 aa form; Tags 'and/or' as printed; source: E. coli BL21 DE3, purified (nickel and calmodulin resin)
T1 sequence (looked up): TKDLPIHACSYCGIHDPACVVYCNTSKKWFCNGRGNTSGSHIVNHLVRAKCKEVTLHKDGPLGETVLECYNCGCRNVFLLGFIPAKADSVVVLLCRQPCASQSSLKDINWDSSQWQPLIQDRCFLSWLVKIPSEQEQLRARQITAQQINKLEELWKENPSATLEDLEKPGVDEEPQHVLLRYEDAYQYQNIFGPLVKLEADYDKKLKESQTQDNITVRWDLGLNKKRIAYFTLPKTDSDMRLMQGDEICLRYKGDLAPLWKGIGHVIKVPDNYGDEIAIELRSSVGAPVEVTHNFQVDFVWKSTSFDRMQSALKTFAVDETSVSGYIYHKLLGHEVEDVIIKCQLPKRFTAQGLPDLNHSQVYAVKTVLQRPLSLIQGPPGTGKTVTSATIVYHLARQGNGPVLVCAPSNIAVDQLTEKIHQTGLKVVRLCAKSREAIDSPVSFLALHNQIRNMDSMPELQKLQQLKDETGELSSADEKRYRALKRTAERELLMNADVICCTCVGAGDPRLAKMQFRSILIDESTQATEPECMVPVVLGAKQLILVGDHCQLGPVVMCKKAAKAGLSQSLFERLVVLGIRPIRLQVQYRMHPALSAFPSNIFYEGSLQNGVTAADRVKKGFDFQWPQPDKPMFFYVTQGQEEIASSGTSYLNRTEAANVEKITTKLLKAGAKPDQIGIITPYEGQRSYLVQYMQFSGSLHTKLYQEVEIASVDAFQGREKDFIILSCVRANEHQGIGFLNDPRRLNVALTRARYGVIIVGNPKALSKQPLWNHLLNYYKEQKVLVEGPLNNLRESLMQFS
The experiment can be described thus: pull-down; GST-Tax as bait on GST resin, purified UPF1 proteins as prey; extensive washes with 0.3 M NaCl (methods: binding buffer with 200 mM NaCl); SDS-PAGE, coomassie staining.

Experiment [2] has as its target T2, UPF1-HD-SQ (HD and SQ domains of UPF1; aa 295-1118) (human, UniProt Q92900-2 295-1118).
T2 construct: UPF1, human, helicase and SQ domains, aa 295-1118; numbers count on: the 1118 aa form; Tags 'and/or' as printed; source: E. coli BL21 DE3, purified (nickel and calmodulin resin)
T2 sequence (looked up): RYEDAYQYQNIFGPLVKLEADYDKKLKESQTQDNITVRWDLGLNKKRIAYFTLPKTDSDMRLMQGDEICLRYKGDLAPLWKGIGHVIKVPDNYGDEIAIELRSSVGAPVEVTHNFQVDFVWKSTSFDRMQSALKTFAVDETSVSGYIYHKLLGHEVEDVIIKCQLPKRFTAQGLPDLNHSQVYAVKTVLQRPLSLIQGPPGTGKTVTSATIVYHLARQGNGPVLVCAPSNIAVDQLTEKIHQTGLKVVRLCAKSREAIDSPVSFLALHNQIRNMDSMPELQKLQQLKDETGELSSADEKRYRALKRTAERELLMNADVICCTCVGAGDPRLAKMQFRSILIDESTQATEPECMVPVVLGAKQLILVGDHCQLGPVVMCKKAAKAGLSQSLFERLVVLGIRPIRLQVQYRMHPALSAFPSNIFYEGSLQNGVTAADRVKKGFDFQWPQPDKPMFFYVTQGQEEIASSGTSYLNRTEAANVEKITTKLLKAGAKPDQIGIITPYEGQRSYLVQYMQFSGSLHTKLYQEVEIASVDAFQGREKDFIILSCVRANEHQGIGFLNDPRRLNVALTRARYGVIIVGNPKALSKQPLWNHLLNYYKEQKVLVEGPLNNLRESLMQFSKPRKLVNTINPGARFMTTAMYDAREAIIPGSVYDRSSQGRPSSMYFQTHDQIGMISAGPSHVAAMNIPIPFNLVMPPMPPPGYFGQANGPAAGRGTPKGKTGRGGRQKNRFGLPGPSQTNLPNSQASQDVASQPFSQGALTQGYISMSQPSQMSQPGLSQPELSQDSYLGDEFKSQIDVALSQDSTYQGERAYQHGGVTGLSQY
Described as above.

In experiment [3] the target is T3, UPF1 full-length (UPF1-FL; aa 1-1118) (human, UniProt Q92900-2 1-1118).
T3 construct: Up-Frameshift Suppressor 1 Homolog (UPF1), human, aa 1-1118; printed length 1118 aa; source: E. coli BL21 DE3, purified (nickel and calmodulin resin)
T3 sequence (looked up): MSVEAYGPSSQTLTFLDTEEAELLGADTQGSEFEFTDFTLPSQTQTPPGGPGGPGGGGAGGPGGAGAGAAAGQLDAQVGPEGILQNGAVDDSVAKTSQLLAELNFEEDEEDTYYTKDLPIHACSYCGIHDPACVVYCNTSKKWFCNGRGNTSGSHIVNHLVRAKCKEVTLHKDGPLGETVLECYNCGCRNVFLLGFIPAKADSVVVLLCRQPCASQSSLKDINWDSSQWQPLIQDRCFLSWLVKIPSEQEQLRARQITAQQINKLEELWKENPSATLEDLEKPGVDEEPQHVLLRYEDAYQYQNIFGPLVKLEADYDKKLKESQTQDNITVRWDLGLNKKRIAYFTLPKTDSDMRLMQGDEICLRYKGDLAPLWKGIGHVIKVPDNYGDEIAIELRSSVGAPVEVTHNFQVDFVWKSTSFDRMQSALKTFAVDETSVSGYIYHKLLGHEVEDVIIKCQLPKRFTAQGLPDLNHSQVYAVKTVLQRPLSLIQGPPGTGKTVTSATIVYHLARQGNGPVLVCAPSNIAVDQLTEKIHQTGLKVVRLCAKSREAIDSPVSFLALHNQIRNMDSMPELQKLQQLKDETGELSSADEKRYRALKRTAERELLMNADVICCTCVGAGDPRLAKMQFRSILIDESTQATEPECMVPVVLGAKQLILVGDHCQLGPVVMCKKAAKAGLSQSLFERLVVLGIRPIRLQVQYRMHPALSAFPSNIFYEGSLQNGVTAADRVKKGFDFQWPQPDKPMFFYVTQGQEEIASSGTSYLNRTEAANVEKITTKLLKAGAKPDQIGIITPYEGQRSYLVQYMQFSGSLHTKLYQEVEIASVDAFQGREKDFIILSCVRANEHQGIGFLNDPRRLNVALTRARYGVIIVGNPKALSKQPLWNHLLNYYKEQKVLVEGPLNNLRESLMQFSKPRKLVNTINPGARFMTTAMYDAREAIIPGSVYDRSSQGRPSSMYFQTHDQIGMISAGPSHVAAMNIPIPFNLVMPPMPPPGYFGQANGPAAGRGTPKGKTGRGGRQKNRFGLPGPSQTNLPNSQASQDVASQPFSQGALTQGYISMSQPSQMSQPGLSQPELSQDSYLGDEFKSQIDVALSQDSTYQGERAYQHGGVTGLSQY
The experiment is described as above.

Experiment [4] addresses T4, UPF1 helicase core domain (UPF1-HD; aa 295-914), C-terminal hexahistidine (human, UniProt Q92900-2 295-914).
T4 construct: UPF1, human, helicase core domain (HD), aa 295-914; numbers count on: the 1118 aa form; for UPF1-HD only the C-terminal hexahistidine is named; also called UPF1-HD-His; HisUPF1-HD; source: E. coli BL21 DE3, purified (Ni-NTA); also in E. coli lysate (co-lysis with Tax-expressing bacteria); not shown: His6, C-terminal, kept
T4 sequence (looked up): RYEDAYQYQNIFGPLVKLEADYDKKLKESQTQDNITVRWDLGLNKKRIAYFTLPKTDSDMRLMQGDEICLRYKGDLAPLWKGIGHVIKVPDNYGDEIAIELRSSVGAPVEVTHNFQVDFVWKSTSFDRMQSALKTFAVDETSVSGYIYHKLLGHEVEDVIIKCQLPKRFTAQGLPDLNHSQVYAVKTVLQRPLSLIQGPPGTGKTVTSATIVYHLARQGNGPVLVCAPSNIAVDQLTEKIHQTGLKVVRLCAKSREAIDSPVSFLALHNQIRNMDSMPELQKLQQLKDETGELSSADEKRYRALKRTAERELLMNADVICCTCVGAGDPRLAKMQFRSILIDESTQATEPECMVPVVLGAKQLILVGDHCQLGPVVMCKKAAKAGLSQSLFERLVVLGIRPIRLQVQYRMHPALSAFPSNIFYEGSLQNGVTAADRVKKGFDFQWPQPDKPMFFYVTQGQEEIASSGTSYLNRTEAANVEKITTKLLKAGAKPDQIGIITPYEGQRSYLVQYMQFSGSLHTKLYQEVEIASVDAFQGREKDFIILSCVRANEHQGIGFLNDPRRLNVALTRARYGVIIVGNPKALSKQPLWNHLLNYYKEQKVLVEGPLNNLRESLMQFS
Described as above.

Experiment [5] addresses T5, GST-Tax_(CACA) (HTLV-1 Tax with C23 and C29 changed to alanine, N-terminal GST fusion) (HTLV-1, UniProt P03409 1-353, C23A | C29A).
T5 construct: Tax protein of HTLV-1, 353 amino acids, double mutant of the zinc finger region; plasmid pGEX2T-Tax_(CACA) made from pGEX2T-TaxWT; also called GST-tagged Tax_(CACA); source: E. coli BL21-DE3, purified (glutathione magnetic beads); also in E. coli lysate (co-lysis with HisUPF1-HD bacteria); not shown: GST, N-terminal, kept
In words: BLI; BLItz; GST-Tax covalently bound to an AR2G sensor; UPF1 His-HD proteins in running buffer (300 mM NaCl, 20 mM phosphate, 0.02% Tween 20, 0.1% albumin); 250 s association, 60 s dissociation.

B1: GST-Tax (HTLV-1 Tax, wild type, N-terminal glutathione S-transferase fusion) (natural protein)
chain: not shown
notes: Tax protein of human T-cell lymphotropic virus type I (HTLV-1); also called TaxWT; HTLV-1 GST-Tax; source: E. coli BL21-DE3, purified (glutathione magnetic beads); also in E. coli lysate (co-lysis with HisUPF1-HD bacteria); not shown: GST, N-terminal, kept
Take B1: the binding result in experiment [1], in experiment [2], in experiment [3] and in experiment [4] was “binds” throughout.

B2: UPF1-HD_(DE636AA), histidine-tagged (domain or fragment)
chain: T4 sequence (looked up) with D342A, E343A
notes: numbers count on: the 1118 aa form; also called UPF1-HD_(DE633AA); UPF1-HD_(DEAA); source: E. coli BL21 DE3, purified (Ni-NTA)
Take B2: in experiment [5], the “fold change of binding against WT” value is roughly 1.8 times.

B3: UPF1-HD_(R843S), histidine-tagged (domain or fragment)
chain: T4 sequence (looked up) with R549S
notes: UPF1, human, helicase core domain aa 295-914 (as UPF1-HD) with R843S; numbers count on: the 1118 aa form; source: E. coli, purified (as the other His-tagged UPF1 proteins)
B3: in experiment [5], the “fold loss of affinity against WT” value turned out to be 4 times.
